Assay results taken from patent publication US20230226096A1 (Orna Therapeutics, Inc., priority 2020, published 2023).

B1: Bat Picornavirus 1 (nucleic acid)
DNA: GAAACCCGTATACACCGGACCTTTTCTCCCCTCCCTCTCCACTTACCTTTTTCCCCTCTTCGGCATGAAACAAGGATTATTCAAGTGGAAACGCGATTTAATATGCGGCTGGCCACCGCGGAATAACGGCAATTGTGTATCTGCTGGAAGCCAAGCCTGCCTAGCCGATAGCCCTTGACCGGGTGTGTAGGATAGCCCAGGAACCAGCAATACGCGACAGGTTATGGTAGAGTAGATACCTAGCCAGGGGCAATGGGACTGCATTGCATATCCCTAATGAACCATTGAGATTTCTCTGGTCATTACCCGGTGATGGTTACTAGAGGGGGGCCTCTAGTACTAGATCTATACTGCCTGATAGGGTCGCGGCTGGCCGACCATGACCTGTATAGTCAGTTGATTTGAGCAAT
B2: Bat Picornavirus 2 (nucleic acid)
DNA: GGGTTTTACGAAACCCGTATACACCAGACCTTTTCTCCCCTCCCCCTCCACCTACCTTTTCCCCCTCTTTGGACCGAAACAAGGACACGTAAGTGGAAACGCGATTTTATATGTGGTTGGCCACCACGGAATAACGGCAATTGTCTACATGTGGGAAGTGCAACCTCCCTAGCCGATAACCCCTGACCGGGTGTGTAGGATAGGAAAGGTGCCCACTGTGGGCGACAGGTTATGGTAGAGTGGATACCTAGCCAGGGGCAATGGGACTGCTTTGCATATCCCTAATGAAGTATTGAGATTTCTCTGCTCATTACCCGGTGATGGTTGTGTGGGGGGGGCCCCATACACTAGATCCATACTGCCTGATAGGGTCGCGGCTGGCCGACCATAACCTGTATAGTCAGTTGAATTCAGCCAAG
B3: Rhimavirus A (nucleic acid)
DNA: CGAATTCCGGACATCTCCTTTCGGGGGCGAGCGTCACCGTGCCCCTCATGGAGGCAACTGTGCCTCTAATCGGTGACCCACTGAGAAAATTTTCTTTCTACGTGGCTAAACAATGCAACTTTATAATAACACAAATTTAATGCTTAATCTTAACACCAAAGATTTGAACATATGTTTGGAAAGTGGCACACTTCAAACATTGCATAGTTGCTAGGGGTGAAGTCCCTTTAAGGGGTTGCAGAGGATCTTTCCTCTTTATGAGCGGCTAGGAGTATCTTCTTGATATTATGTGGTCGTGCAACTCACTTCCCAGATGTATGACGGTGTACTAAGCGATTGGAACTAGTCATAACCTCTTTGAATTTTGGTATTGCGAGTCTAGCAGGGGGATATTTACCGCTAAAGGGTGACACACTCGTGAGGGTGGCCTTTGGTGTGTGTATATTTATTCCGCCCATCTTGCATGGGGTGCTAAAATTCTAATGCTGTGAAATAACCATTTTCTGAATACATTCTCTACATTTGGAGTCAAATATGAGGAATGCCACTCAGGTACCCTTGACATGATCTTGGATCTGAGAGTGGGCTAATTATCTAATTATTTGGCGACTTTCTAAAATCTTCTGTTTTTAGTGGTGACAATTTATGGTTATAAA
B4: Basella alba endornavirus (nucleic acid)
DNA: GGAATATGGCTAATCGGCTTATTCTAATCAAACGCAAAAGACTTATGACACAGACCGGACCTGAACGAGGTGATAAAACACCTCGTTCAGGTTCAAAACGTAGAAGATTCATTCCTCCGATTAGAAATACAACTACGTCTAAGCACGATAGAGATGGTATCAAGATCGGTTTTAGACCACGAGAAAATCGGCAAATGAAAGTACAAGTTGGGTGGTTTAAATTACCAAGAACAGTAACATTCAAGAACAACGGCAACCCGTTTGTTACCTCATTTCGTAAATTGTTTAGAAGTAACAAAGATAAATTATTTAATGGTGGGAAGAACCTAAGTACAGTACCAGCCAGAAGTAGTGAAATGACAGAAATGTTTATGTTCATGTCCACGCTAGAGGGCCAATTGTCAATCCAAGATCGAGATCCAAAAATAATCAATAAGTCTATATACATGATAGAGGTA
B5: Rafivirus LPXYC222841 (nucleic acid, listed as Rafivirus sp.)
DNA: GTGTCCGGGAAGCGACTCAAGCTTTTGACTGAGTCTCTACACCTTCATCCGTAACATCTTTAAGTTTATGTGCCTATGGACCTCTAGTGCACTGCCATCACCGGGGGTGTATTGGACTGGTTTTTCCACAATCCATTCATCCTGAGGAATTTTGGCTTTGTTACTAGGATGGTCCCACCACACGCTTATCTGTGCCTATTGTGTCAACCATGTTCTTAAGTAGTTGTGCCCGTGGGTGAGTAGATAACCACAACAATCCGATAAAGCATCTCGCAAGGATGTGAGTAATGGAGTGTATGTGCTACAGAGACCCACAACCTGAACCAAGAGAGACACAGTGAGGATTGTAAAGGGGGAACTCTTTGAAAGGGCATGTCCCGCAATTCCTACTGACTGACACCGGGGGTTGGTGTCGGTGGATTTTAGCAAATCCTGTTACTGGGTGATAGCCTTGTGCACTTCACTTGGTTCTTGTATAAGTGCTGTA
B6: Bat dicibavirus (nucleic acid)
DNA: GTATAGCACCGGAATGGTATTTTACTACTCCAAGTATACGTACTAGGAGTTAAACCCTGTAATTTACAGGGGATTTAGTGACTTTTATCCGTAAAAGTCGATTGGACGTTAATCGGTAACGAGGCCAAGTACCGTGAACCAATTTAAAAACGTATTTTCTCATGTGGTAGAACCAACTTGGAAATAGCATGGCATATAGGTTGTTTAGGG
B7: Bat sapelovirus (nucleic acid, listed as Sapelovirus sp.)
DNA: GACAGGTGTTTTGGAGGGCGGATGACGATATCTGGCTGGCCACCAGGGAATAACGGCAAATGTCTGATCATACGGTTCACAAGTCTACCGGCGATAGTGGTTCAACACCATGTGTAGCAGGGATTCTTGCGTATGTGAAGGCGACAGTGC
B8: Ball python nidovirus (nucleic acid)
DNA: CCCCTTCACCCATAGGCACTAGGAGAACAGGATAACCCCTAACGGGGCATCCTGCCTGTGACCTTTCAGATTCGCTAGTTAGATATCTTCACAGACTCTGCTAGGCTTCTGACCCAGTCCGTTCCCAAAGTCCGTTACCGCCCGAGTAGCGCTTAGGCGCGAAAGGGACGGAAGTACCTCCAGTAAGCGAAAGCTGAAGTAAGGGAAATACGGCAAGACTAACTTGTTAGTCTTACAGTGTGGATAACCTGGTAGTTATCCCCGACAAGAGACCTGACTCGATGTGAAAACATCCAACTAGGTTGGCTTCAAACTAGCTACAGGCAGGATATCCCCCAACGGGGCCTCCAAGGAATCGAGAACCAACCCTCATTCCACGTCTGTAGTAAGCAAAAACAGGGGCGATCTTCACCGACACCTCTCACCACAGAGCACACCAACCTCTGTGAAGCCAATTTCCTCGTCCAAGGACAGGTTATTGAGGGTCAACTTTCTTCCGACCAGAAGAAGGGATTTCCTACCAAAAGAAAAACCAAATCCACCAACACCACAAGGTAAAACAACAACTTGTGAAGCCAATACTTAGTCAAAGACTAACTATTGAGGGTCAACTTTCTCTTCAATAGAGAAGGGATTTCCTGGTAAAACAAATAACAACAACTAACATCAGCAACT
modifications: Ball python nidovirus
B9: Boone cardiovirus 1 (nucleic acid, listed as Cardiovirus sp.)
DNA: TACGATCGCTGTACATTCCACTACTGCCAATTAGCTCCCCCTTCCCGTTGCTCCCCTCTATAAGGAGAGCCTTCTCTTGCAAAGGTGAAGCCTTCACCCCCGGTCGAAGCCGCTTGGAATAAGACAGGGTTATTTTCTCCTCTCCTCGGCGCTTGCCTCTTCTAAGCTGAATAGGTTCTATCTATTCAGGCGGATGGTCTGGTCCGTTCCTTCTTGGACAGAGTGTGTATCTGGGTTTTCCGGATCTCGACCACACACTCACCAGAGCTCAGGAGTGATTAAGTCAAGGCCCGATCTGCGGCGAAAAGGAAATGAAGTATTTTGCAGCTGTAGCGACCTCTCAAGGCCAGCGGATTTCCCCACCTGGTGACAGGTGCCTCTGGGGCCAAAAGCCACGTGTTAATAGCACCCTTGAGAGCGGTGGTACCCCACCACCCTGCAAATTATGGATTTGACTTAGTAACTAAAAGATTGACTTGGCATACCTCAACCTGAGCGGCGGCTAAGGATGCCCTGAAGGTACCCGTGTTGAAATCGCTTCGGCGACCATGGATCTGATCAGGGGCCCTGCCTGGAGTGGTTCTATCCCACACAGCGTAGGGTTAAAAAACGTCTAACCGCCCCACAAAGACCCCGGCAGGGATGCCGGTTTCCTTTTTACCAATTCTTGACACT
B10: Bat Iflavirus (nucleic acid, listed as Iflavirus sp.)
DNA: ACGAATCGGTATACGCTTCGGTACCTATTGTTGCAAGTTCGTTCCCTATTTTCGATTTGCCTGCCCGAATTTGACTCAAACAATTGTGACATACTATGTCTCTGTTTGAAAGCACTACACGAGTTTGCGCCCAGCATGTATGTTTTCAAGTCTTTTGTATAAGTCTGCCTCTATAGTGGTTTTCTTTGACCTTAAAGCCTTGTCAACCATCCTATATGCTGCATCGAGACTTGATGTCAATCTGCCTCTACTACGCAAATGTCTAGTAATTAGTTATAAGGTTTTACTATTTTCCCTCATTTCCAATTTTAGTTTGTAGTGTATGTGAGTATCATTCTTACTCCGACTGTTAAGAGAAACCAATTTATAGTCGTTAAATATGATAAATGGAATGAATGATGGTGTCATTTTAAAAACACTCTTCTCTATAGGCGTAAGCATTCTCGCTCTTAGAGTCGTAAAGAAGAAATGCCGTGTCTATCAGTATGTTATGCGATTTATTTTCTGCCACGCGCTTCTAGTGCAATCTAGTTGACATACAGACATTGCCTACCACTCGCGAGGGTCGACCGGTAGTGTAAGGAGTAAGTGATGATTTCCGCTTATTCTGTACCCTTTGCCTGGTGAGGACAGATCCTGACTAATTTTAAATATAAATGAACACTAGCTTCCAAG
B11: Bat Hp-betacoronavirus (nucleic acid)
DNA: TTAAGCTTCGGCTTGTTGCATAGGACCGGAAAGGTACTATCTACCCTAACTCTTGTAGTTAGACTCTCTAAACGAACTTTAAAACTGGTTGTGTCCTTCAGTAGTCTGTATGGCCATTGGAGGCACACCGGTAATTATCAAATACTAAGAAGATTCATAGTACATCCTTGTCTAGCTTTTGGTTGGCAGTGAGCCTACGGTTTCGTCCGTGTCGCTCACAATTATCCACACAGTAGGTTTCGTCCGCTGTGGTTGAGTTGCTAGTCCGTTGCTGTTTCGTCAGCCATCTACAACTCGACACC
modifications: Bat Hp-betacoronavirus

Test system: HEK293 cells
Assay type: cell-based, human
Details: luminescence from secreted Gluc in supernatant 24 hours after transfection of HEK293 cells; circular RNA encoding Gluc with the named IRES (UTR truncated to 675 nt)

Compared with B1, B2 is higher in Expression: 1.85E+07 for the first, 7.99E+07 for the second.

Compared with B3, B4 is lower in Expression: 8.42E+05 for the first, 7.65E+04 for the second.

Going from B5 to B6, the Expression falls from 2.22E+05 to 7.43E+04.

Going from B7 to B8, the Expression rises from 8.05E+04 to 8.25E+04.

Going from B9 to B10, the Expression falls from 2.62E+06 to 9.76E+04.

With B11 the Expression was 8.47E+04.
